Measured values reported in article PMC10195817, “Autophagy receptor NDP52 alters DNA conformation to modulate RNA polymerase II transcription” (Nature Communications, 2022).
Several values for one entry are separate records, joined by “and”; a condition that tells them apart may be missing. Identical values can stand only once. Blank lines part the entries; values can stand above or below the binder they belong to.

Assays:
[1] = target: T1, NDP52-FL (full-length NDP52/CALCOCO2), Q13137; test: SEC-MALS; 100 ul at 1 mg/ml (NDP52-FL, CoCoA) or 5 mg/ml (NNDP52, CNDP52, ZFs); Superdex 200 (30 x 1 cm); 50 mM Tris pH 7.5, 150 mM NaCl, 1 mM DTT; room temperature; conditions: remark: other sources report otherwise
T1 chain: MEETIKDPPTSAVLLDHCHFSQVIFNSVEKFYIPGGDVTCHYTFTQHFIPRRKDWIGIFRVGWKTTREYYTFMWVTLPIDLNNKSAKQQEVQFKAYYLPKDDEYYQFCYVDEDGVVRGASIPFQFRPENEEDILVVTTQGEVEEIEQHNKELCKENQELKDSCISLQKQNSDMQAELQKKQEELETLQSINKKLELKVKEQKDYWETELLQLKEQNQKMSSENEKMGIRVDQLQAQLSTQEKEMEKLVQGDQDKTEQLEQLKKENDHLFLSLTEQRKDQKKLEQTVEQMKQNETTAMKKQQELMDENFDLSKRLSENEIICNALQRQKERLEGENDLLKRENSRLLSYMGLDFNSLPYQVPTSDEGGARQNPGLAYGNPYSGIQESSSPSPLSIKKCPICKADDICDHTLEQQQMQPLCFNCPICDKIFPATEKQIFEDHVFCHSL

[2] = target: T1, NDP52-FL (full-length NDP52/CALCOCO2), …; test: AFM imaging; purified protein adsorbed on mica (poly-L-lysine), imaged in liquid, PeakForce Tapping; monomers and oligomers counted by hand; conditions: remark: other sources report otherwise
[3] = target: T1, NDP52-FL (full-length NDP52/CALCOCO2), …; test: MST; RED-tris-NTA labelled protein at 50 nM, unlabelled protein of the same construct titrated from 10 uM (16-step serial dilution), PBS, 15 min at room temperature; Monolith NT.115; oligomerisation, step of the constant not told; conditions: remark: other sources report otherwise
[4] = target: T1, NDP52-FL (full-length NDP52/CALCOCO2), …; test: mass photometry; NDP52-FL alone, 50 mM Tris-HCl pH 7.5, 150 mM NaCl, OneMP mass photometer; results say 100 nM, methods say diluted to 10 nM; conditions: remark: other sources report otherwise
[5] = target: the molecule itself; test: SEC-MALS; 100 ul at 1 mg/ml (NDP52-FL, CoCoA) or 5 mg/ml (NNDP52, CNDP52, ZFs); Superdex 200 (30 x 1 cm); 50 mM Tris pH 7.5, 150 mM NaCl, 1 mM DTT; room temperature
[6] = target: the molecule itself; test: MST; RED-tris-NTA labelled protein at 50 nM, unlabelled protein of the same construct titrated from 10 uM (16-step serial dilution), PBS, 15 min at room temperature; Monolith NT.115; oligomerisation, step of the constant not told
[7] = target: the molecule itself; test: AFM imaging; purified protein adsorbed on mica (poly-L-lysine), imaged in liquid, PeakForce Tapping; monomers and oligomers counted by hand
[8] = target: T2, NNDP52 (N-terminal truncated region of NDP52, amino acid residues 1-190) (UniProt Q13137 1-190); test: MST
T2 chain: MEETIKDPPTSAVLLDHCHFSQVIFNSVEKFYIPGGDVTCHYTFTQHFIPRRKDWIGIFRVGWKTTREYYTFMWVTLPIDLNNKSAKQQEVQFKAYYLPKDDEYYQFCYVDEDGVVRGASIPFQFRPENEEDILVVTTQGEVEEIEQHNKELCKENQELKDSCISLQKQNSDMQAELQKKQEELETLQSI

[9] = target: T3, NDP52-FL (Human, UniProt Q13137 1-446); test: fluorescence titration; Fluorescence: 100 nM DNA, 50 mM Tris-HCl pH 7.5, 150 mM NaCl, 1 mM DTT; EMSA: 50 mM Tris-HCl pH 7.5, 50 mM NaCl, 3 mM MgCl2, 5 min; temperature not stated; conditions: protein: recombinant, tags: His-tag (pET151), chain copies: 2, blunt
T3 sequence: T1 chain

[10] = target: T4, CoCoA (Human, UniProt Q9P1Z2 1-691); test: fluorescence titration; high affinity; Fluorescence: 100 nM DNA, 50 mM Tris-HCl pH 7.5, 150 mM NaCl, 1 mM DTT; EMSA: 50 mM Tris-HCl pH 7.5, 50 mM NaCl, 3 mM MgCl2, 5 min; temperature not stated; conditions: protein: recombinant, tags: His-tag (pET151), chain copies: 2, blunt
T4 sequence: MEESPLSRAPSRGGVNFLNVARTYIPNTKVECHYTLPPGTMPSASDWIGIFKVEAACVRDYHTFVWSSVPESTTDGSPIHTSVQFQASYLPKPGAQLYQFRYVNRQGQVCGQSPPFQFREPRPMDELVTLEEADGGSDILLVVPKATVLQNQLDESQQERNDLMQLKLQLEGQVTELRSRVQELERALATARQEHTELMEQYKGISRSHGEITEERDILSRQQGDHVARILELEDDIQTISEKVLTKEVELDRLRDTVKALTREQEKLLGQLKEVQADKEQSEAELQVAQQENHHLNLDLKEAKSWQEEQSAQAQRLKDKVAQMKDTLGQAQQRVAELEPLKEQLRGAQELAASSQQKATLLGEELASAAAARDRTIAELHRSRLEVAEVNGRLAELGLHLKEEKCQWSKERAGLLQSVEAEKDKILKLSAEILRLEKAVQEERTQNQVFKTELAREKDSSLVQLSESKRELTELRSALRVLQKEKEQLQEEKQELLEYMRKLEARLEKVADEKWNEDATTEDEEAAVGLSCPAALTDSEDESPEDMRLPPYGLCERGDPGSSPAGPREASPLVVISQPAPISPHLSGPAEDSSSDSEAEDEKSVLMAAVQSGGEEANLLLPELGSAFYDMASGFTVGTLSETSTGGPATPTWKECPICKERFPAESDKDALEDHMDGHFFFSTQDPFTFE

[11] = target: the molecule itself; test: MST
[12] = target: T3, NDP52-FL; test: fluorescence titration, competition; with and without ss40 competitor; Fluorescence: 100 nM DNA, 50 mM Tris-HCl pH 7.5, 150 mM NaCl, 1 mM DTT; EMSA: 50 mM Tris-HCl pH 7.5, 50 mM NaCl, 3 mM MgCl2, 5 min; temperature not stated; conditions: protein: recombinant; tags: His-tag (pET151); chain copies: 2; label: 3' FAM (called FITC in Methods) on strand 1 for fluorescence; blunt
[13] = label: 3' FAM (called FITC in Methods) on strand 1
[14] = label: 3' FAM (called FITC in Methods) on strand 1 for fluorescence

stoichiometry N [1]: 2 and 3 and 4
percent of molecules in an oligomeric state [2]: 15%
stoichiometry N [2]: 2
Kd [3]: 210 nM
stoichiometry N [4]: 2 and 3
B1: NDP52-FL (full-length NDP52/CALCOCO2), Q13137 1-446 (natural protein)
chain: T1 chain

B2: CoCoA (recombinant) (natural protein, UniProt Q9P1Z2 1-691, looked up)
chain: T4 sequence
notes: CoCoA, member of the CALCOCO family, recombinant; source: E. coli BL21 DE3, purified (HisTrap FF, Superdex 200 SEC)
stoichiometry N [5]: 2
Kd [6]: 85 nM

B3: ZFs (the two zinc finger domains of NDP52, amino acid residues 380-446) (domain or fragment, UniProt Q13137 380-446, looked up)
chain: YSGIQESSSPSPLSIKKCPICKADDICDHTLEQQQMQPLCFNCPICDKIFPATEKQIFEDHVFCHSL
notes: NDP52/CALCOCO2, zinc finger domains ZF1 and ZF2, amino acid residues 380-446; also called ZFs domain; source: E. coli BL21 DE3, purified (HisTrap FF, Superdex 200 SEC)
stoichiometry N [5]: 2 and 3
Kd [6]: 180 ± 17 nM

Kd [8]: 110 nM
B4: CNDP52 (C-terminal region of NDP52, amino acid residues 365-446) (domain or fragment, UniProt Q13137 365-446, looked up)
chain: EGGARQNPGLAYGNPYSGIQESSSPSPLSIKKCPICKADDICDHTLEQQQMQPLCFNCPICDKIFPATEKQIFEDHVFCHSL
notes: NDP52/CALCOCO2, a section of the coiled-coil and both zinc finger domains, amino acid residues 365-446; source: E. coli BL21 DE3, purified (HisTrap FF, Superdex 200 SEC)
stoichiometry N [7]: 2
stoichiometry N [5]: 3
Kd [6]: 50 ± 6 nM

B5: ds15 (dsDNA)
DNA 1: TTAGTTGTTCTCTGG
DNA 2: CCAGAGAACAACTAA
Kd [9, 13]: < 100 nM
binding result [10, 13]: binds

B6: NNDP52 (N-terminal truncated region of NDP52, amino acid residues 1-190) (domain or fragment, UniProt Q13137 1-190, looked up)
chain: T2 chain
notes: NDP52/CALCOCO2, SKICH domain and part of the coiled-coil region, amino acid residues 1-190; also called N-terminal region of NDP52; source: E. coli BL21 DE3, purified (HisTrap FF, Superdex 200 SEC)
stoichiometry N [5]: 2
Kd [11]: 170 nM

B7: ds40 (dsDNA)
DNA 1: TTAGTTGTTCGTAGTGCTCGTCTGGCTCTGGATTACCCGC
DNA 2: GCGGGTAATCCAGAGCCAGACGAGCACTACGAACAACTAA
Kd [9, 14]: < 100 nM
binding result [10, 14]: binds
Kd [12]: < 100 nM
